The target of the data set is T1, Protein tyrosine kinase 7 (PTK 7) (UniProt Q13308 31-704).
T1 sequence: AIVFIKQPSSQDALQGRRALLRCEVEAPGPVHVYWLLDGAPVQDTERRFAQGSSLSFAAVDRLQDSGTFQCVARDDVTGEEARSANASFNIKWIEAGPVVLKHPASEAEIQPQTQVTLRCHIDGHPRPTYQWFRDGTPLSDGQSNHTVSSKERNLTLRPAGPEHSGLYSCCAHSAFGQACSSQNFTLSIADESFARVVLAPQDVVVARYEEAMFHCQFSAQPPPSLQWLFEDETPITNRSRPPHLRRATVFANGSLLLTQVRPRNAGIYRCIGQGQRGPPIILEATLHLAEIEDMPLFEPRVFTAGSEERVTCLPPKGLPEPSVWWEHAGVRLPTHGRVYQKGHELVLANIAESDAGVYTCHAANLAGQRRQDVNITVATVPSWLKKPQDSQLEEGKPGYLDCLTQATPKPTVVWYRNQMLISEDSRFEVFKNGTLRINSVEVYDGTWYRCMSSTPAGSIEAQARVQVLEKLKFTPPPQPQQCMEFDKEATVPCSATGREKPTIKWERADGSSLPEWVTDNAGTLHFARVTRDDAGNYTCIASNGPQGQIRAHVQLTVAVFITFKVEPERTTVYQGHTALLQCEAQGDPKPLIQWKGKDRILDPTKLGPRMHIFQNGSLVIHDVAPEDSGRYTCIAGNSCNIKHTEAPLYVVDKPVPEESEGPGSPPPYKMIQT
Nature of the data set: competition: displacement of y-CDs-APT from Fe3O4-cDNA, ratiometric fluorescence; Fe3O4-cDNA (S2) competitor strand; PTK7 0.1-200 ng/mL, LOD 0.016 ng/mL; Buffer, salt and pH not given in material; probe hybridisation 25 °C, 60 min; DNase I amplification. To be noted: protein: recombinant; label: y-CDs (emission 580 nm); assayed pre-hybridised to partly complementary cDNA S2 on Fe3O4; PTK7 displaces S2.

Data on 1 molecule can be found in paper PMC7885398, “Multi-carbon dots and aptamer based signal amplification ratiometric fluorescence probe for protein tyrosine kinase 7 detection”.

Regarding ATCTAACTGCTGCGCCGCCGGGAAAATACTGTACGGTTAGA (ssDNA, conjugated to yellow carbon dots (y-CDs); attachment end not stated) [APT (PTK7 aptamer), as y-CDs-APT], the binding result is “binds”.
